Measurements as given in patent US20220306758A1.
Values belong to the binder of their own block, whether it stands above or below them.

Target: monkey BCMA-MMH (monkey BCMA with C-terminal myc-myc-hexahistidine tag) (monkey)
Assay: SPR, Biacore, mAb captured by anti-hFc, 25 C

Chain of monkey BCMA-MMH (monkey BCMA with C-terminal myc-myc-hexahistidine tag) (monkey) (chain, as listed by the source limits assumed): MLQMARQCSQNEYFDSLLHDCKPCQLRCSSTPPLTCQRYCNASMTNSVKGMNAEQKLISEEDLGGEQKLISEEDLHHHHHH

90 nM mfBCMA.mmh Bind (RU): 1.1 RU
B1: mAb16732 (REGN4514) (antibody, V domains shown)
VH: EVQLVESGGGLVQPGRSLRLSCAASGFTFDDYAMHWVRQAPGKGLEWVSGISWNSGNMGYADSVKGRFTISRDNAKNSLFLQMHSLRAEDTAFYYCAKVRLTAFDFWGQGTLVTVSS
VL: DIQMTQSPSSLSASVGDRVTITCRTSQSIGNYLNWFQQKPGKAPKLLIYTASSLQNGVPSRFTGSGSGTDFTLTISSLQPEDFVIYYCQQSFSTPYTFGQGTKLEIK

90 nM mfBCMA.mmh Bind (RU): 1.9 RU
B2: mAb16747 (REGN4515) (antibody, V domains shown)
VH: QVQLVESGGGLVKPGGSLRLSCAASGFTFSDYYISWIRQAPGKGLEWVSYISSSGSSIKYADSVKGRFTISRDNAKNSLYLQMNSLRAEDTAVYYCAREGGNYGMDVWGQGTTVTVSS
VL: DIQMTQSPSSVSASVGDRVTITCRASQGINNWLVWYQQKPGKAPKLLIYAATSLQSGVPSRFSGSGSGTDFTLTISSLQPEDFATYYCQQANSFPPTFGQGTKLEIK
